T1: CD123-Fc recombinant protein (human, UniProt P26951 19-305)
T1 construct: Soluble staining reagent; also called CD123-Fc protein; not shown: Fc part
T1 sequence (looked up): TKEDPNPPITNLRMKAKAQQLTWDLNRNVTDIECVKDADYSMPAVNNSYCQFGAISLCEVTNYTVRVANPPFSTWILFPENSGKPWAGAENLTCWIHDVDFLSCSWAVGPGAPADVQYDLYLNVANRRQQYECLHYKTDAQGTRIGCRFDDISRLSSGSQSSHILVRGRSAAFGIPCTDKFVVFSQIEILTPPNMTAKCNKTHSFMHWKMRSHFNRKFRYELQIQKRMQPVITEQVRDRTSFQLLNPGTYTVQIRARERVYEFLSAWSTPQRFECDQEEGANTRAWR


These binders were tested against T1, CD123-Fc recombinant protein (assay: FACS staining of CAR-T cells with CD123-Fc recombinant protein (FIG. 28)).

binding result | Binder
binds | anti-CD123 scFv-C19 (scFv, also called C19 scFv) scFv: DIRMTQSPSSLSASVGDRVTITCRASQDIRHDLGWYQQKPGKAPSLLMYATSTLQSGVPSRFSGSGSGTHFTLTISSLKPEDSATYYCLQDGDYPLTFGGGTKLEIKGGGGSGGGGSGGGGSQVQLVQSGGGVVQPGRSLRLSCAASGFTFSSYGMHWVRQAPGKGLEWVAVISYDGSNKYYADSVKGRFTISRDNSKNTLYLQMNSLRAEDTAVYYCAKDPSLIQYYYYGMDVWGQGTMVTVSS
binds | anti-CD123 scFv-C5 (scFv, also called C5 scFv; C5 CAR) scFv: NFMLTQPHSVSESPGKTVTLSCTRSSGSIAGSYVQWYQQRPGSSPTTVIFQDNQRPSGVPDRFSGSIDKSSNSASLTISGLKTEDEADYYCQSYDSNNQVFGGGTKLTVLGGGGSGGGGSGGGGSEVHLVESGGGVVRPGGSLRLSCAASGFTFGDYGMSWVRQAPGKGLEWVSGINWNGGRTGYADSVKGRFTISRDNAKNSLYLQMNSLRAEDTALYYCARARGSGSYFGYMDVWGKGTTVTVSS
binds | anti-CD123 scFv-C11 (scFv, also called C11 scFv; C11 CAR) scFv: QSVVTQPPSASGTPGQRVTISCSGSSSNIGSNYVYWYQQLPGTAPKLLIYRNNQRPSGVPDRFSGSKSGTSASLAISGLRSEDEADYYCAAWDDSLSGYVFGTGTKLTVLGGGGSGGGGSGGGGSEVQLVESGGGLVQPGRSLRLSCTASGFTFGDYAMSWVRQAPGKGLEWVGFIRSKAYGGTTEYAASVKGRFTISRDDSKSIAYLQMNSLKTEDTAVYYCTRDIGYYGSGSYSPFDYWGQGTLVTVSS
binds | anti-CD123 scFv-C29 (scFv, also called C29 scFv) scFv: QPVLTQPPSASGTPGQRVTISCSGSSSNIGSNYVYWYQQLPGTAPKLLIYRNNQRPSGVPDRFSGSKSGTSASLAISGLRSEDEADYYCAAWDDSLSGYVFGTGTKVTVLGGGGSGGGGSGGGGSEVHLVESGGGLVQPGRSLRLSCTASGFTFGDYAMSWVRQAPGKGLEWVGFIRSKAYGGTTEYAASVKGRFTISRDDSKSIAYLQMNSLKTEDTAVYYCTRDIGYYGSGSYSPFDYWGQGTLVTVSS
binds | anti-CD123 scFv-C24 (scFv, also called C24 scFv) scFv: DIQMTQSPSSLSASVGDRVTITCRASQSISSYLNWYQQKPGKAPKLLIHAASSLQSGVPSKFSGSGSGTDFTLTISSLQPEDFATYYCLQYKTYPYTFGPGTKVEIKGGGGSGGGGSGGGGSQVQLVQSGAEVKKPGSSVKVSCKASGGTFSSYAISWVRQAPGQGLEWMGGIIPIFGTANYAQKFQGRVTITADESTSTAYMELSSLRSEDTAVYYCARDSPSGSTNYYYYYMDVWGKGTTVTVSS
binds | anti-CD123 scFv-C21 (scFv, also called C21 scFv) scFv: QSVLTQPPSASGTPGQRVTISCSGSSSNVGGNPVYWYRQVPTAAPKLLVYGHNQRPPRDPDRFSGSKSGTSASLAISGLRSEDEADYYCAAWDDSLSGWVFGGGTELTVLGGGGSGGGGSGGGGSEVQLVESGGGLVQPGRSLRLSCAASGFTFDDYAMHWVRQAPGKGLEWVSGISWNSGSIGYADSVKGRFTISRDNAKNSLYLQMNSLRAEDTALYYCAKGRYVDIVATINDAFDIWGQGTMVTVSS
binds | anti-CD123 scFv-C14 (scFv, also called C14 scFv) scFv: DIRMTQSPSSLSASVGDRVTITCQASQDITNYLNWYHQKPGKAPKLLIYDASNLETGVPSRFSGGGSGTDFTFTISSLQSEDIGTYYCQQYDDLPLTFGGGTKVEIKGGGGSGGGGSGGGGSQVQLQESGPGLVKPSETLSLTCTVSGGSISSSSHYWGWIRQPPGKGLEWIGSIYYSGSTYYNPSLKSRVTISVDTSKNQFSLKLSSVTAADTAVYYCARRVWVWPTYGMDVWGQGTTVTVSS
binds | anti-CD123 scFv-C10 (scFv, also called C10 scFv) scFv: SYELTQPPSVSVAPGKTARITCGGNNIGSKSVHWYQQKPGQAPVLVVYDDSDRPSGIPERFSGSNSGNTATLTISRVEAGDEADYYCQVWDSSSDHWVFGGGTKLTVLGGGGSGGGGSGGGGSQVQLVQSGAEVKKPGSSVKVSCKASGGTFSSYAISWVRQAPGQGLEWMGGIIPIFGTANYAQKFQGRVTITADESTSTAYMELSSLRSEDTAVYYCAREKWGYYGDYYYGMDVWGQGTTVTVSS
binds | anti-CD123 scFv-C18 (scFv, also called C18 scFv) scFv: QSALTQPASVSGSPGQSITISCTGTSSDVGGYNYVSWYQQHPGKAPKLMIYDVSNRPSGVSNRFSGSKSGNTASLTISGLQAEDEADYYCSSYTSSSTLFVFGTGTELTVLGGGGSGGGGSGGGGSQVQLQESGPGLVKPSQTLSLTCTVSGGSISSGDYYWSWIRQSPGKGLEWIGYIHSTGTTYYNPSLKSRLTISLDTSKNQFSLKLNSVTAADTAVYYCARGGVGTIFNYWGQGTLVTVSS
binds | anti-CD123 scFv-C6 (scFv, also called C6 scFv) scFv: SYELTQPPSVSVSPGQTARIPCSGADLGDQYVSWYQHQPGQSPLLVIYEDDKRPSGIPERFSGSNSGNTATLTISGTQAMDEADYYCQAWDGNAAIFGGGTKLTVLGGGGSGGGGSGGGGSQVQLVQSGGGSVQPGGSLRLSCAASGFTFTRYSMNWVRQAPGKGLEWVSYISSSSSTIYYADSVKGRFTISRDNAKNSLYLQMNSLRDEDTAVYYCARDGYGGNSDYYGMDVWGQGTTVTVSS
binds | anti-CD123 scFv-C9 (scFv, also called C9 scFv) scFv: QSVLTQPPSASGTPGQRVTISCSGSNSNIENNYVYWYQHLPGTAPKRLIYQNNQRPSGVPDRFSGSKSGTSASLAISGLRSEDEADYYCSAWDDSLSAWVFGGGTELTVLGGGGSGGGGSGGGGSEVHLVESGGGLVQPGRSLRLSCTASGFTFGDYAMNWVRQAPGKGLEWVGFIRSKASGGTTDYAASVKGRFTISRDDSKSIAYLQMNSLKTEDTAVYYCTRALRGYSYGLFDYWGQGTLVTVSS
binds | anti-CD123 scFv-C4 (scFv, also called C4 scFv) scFv: QSALTQPPSASGTPGQRVTISCSGSSSNIGSNYVNWYQQLPGTAPKLLIYRNNQRPSGVPDRFSGSKSGTSASLAISGLRSEDEADYYCAAWDDSLSGHGVFGTGTELTVLGGGGSGGGGSGGGGSQVQLVQSGPEVKKPGASVKVSCKASGYDFIRYYMNWVRQAPGQGPEWMGAIDPSDGDTTYGQKFQGRVTLTRDTFTSTVYMELSSLRSEDTAVYYCARDWELTNSYGLDVWGQGTTVTVSS
binds | anti-CD123 scFv-C15 (scFv, also called C15 scFv) scFv: DIQLTQSPSTLSASVGDRVTISCRASQSISSWLAWYQHKPGKAPKLLIYKTSALEDGVPSRFSGSGSGTEFTLTISSLQPDDFATYFCLHYGSYTFGQGTKVDIKGGGGSGGGGSGGGGSEVQLVESGGGLVNPGGSLRLSCEASGFTFSDYYISWIRQAPGKGLEWISYISGSSTYTDFADSVKGRFTISRDNAKNTVFLQMNSLRAEDTAVYYCARDRRGRFDPWGQGTLVTVSS
binds | anti-CD123 scFv-C13 (scFv, also called C13 scFv) scFv: DVVMTQTPLSLPVTLGQPASISCRSSQGLVFSDGVTYLNWFQQRPGQSPRRLIYKVSNRDSGVPDRFSGSGSGTDFTLKISRVEAEDVGIYYCMQGTHWPHTFGQGTKLEIKGGGGSGGGGSGGGGSEVQLVESGGGLVKPGGSLRLSCAASGFTFSSYSMNWVRQAPGKGLEWVAFISHDASKKFYADSVKGRFTLSRDNSKNTLYLEMNSLGAEDTALYYCGRDRNWGFSDFWGQGTLVTVSS
binds | anti-CD123 scFv-C1 (scFv, also called C1 scFv) scFv: QSALTQPASVSGSPGQSITISCTGTSSDIGAYNYVSWYQQHPGKAPKLIIYDVSHRPSGVSNRFSGSKSGNTASLTISGLQSEDEADYYCSSDTNNNTLVFGVGTKLTVLGGGGSGGGGSGGGGSEVHLVESGGGVVQPGRSLRLSCAASGFTFSSYGMHWVRQAPGKGLEWVAVIWYDGSNKYYADSVKGRFTISRDNSKNTLYLQMNSLRAEDTAVYYCARDRDGFFLPMYYFDYWGQGTLVTVSS
binds | anti-CD123 scFv-C16 (scFv, also called C16 scFv) scFv: QSVVTQPPSASGTPGQRVTISCSGSSSNIEGNTVSWYQQFPGAAPKLLIYSNSYRASGVPDRFSGSKSGTSASLAISELQSEDEADYYCSAWDDSLNGPVFGGGTELTVLGGGGSGGGGSGGGGSQVQLQESGGGLVQPGGSLRLSCAASGFTFSSYSMNWVRQAPGKGLEWVSYISSSSSTIYYADSVKGRFTISRDNAKNSLYLQMNSLRAEDTAVYYCARDIYGDWDYYYYGMDVWGQGTTVTVSS
binds | anti-CD123 scFv-C2 (scFv, also called C2 scFv) scFv: QSVVTQPPSVSAAPGQKVTISCSGSSSNIGNNYVSWYQQFPGTAPKLLIYDNNKRPSGIPDRFSGSKSGTSGTLGITGLQTGDEADYYCVTWDTSLSAGVFGGGTKLTVLGGGGSGGGGSGGGGSQITLKESGGGLVKPGGSLRLSCAASGFTFSNAWMSWVRQAPGKGLEWVGRIKSKTDGGTTDYAAPVKGRFTISRDDSKNTLYLQMNSLKTEDTAVYYCTTDPHGYYYGMDVWGQGTTVTVSS
binds | anti-CD123 scFv-C23 (scFv, also called C23 scFv) scFv: DILMTQSPSSLSASVGDRVTITCQASQDISNYLNWYQQKPGKAPKLLIYDASNLETGVPSRFSGSGSGTGFSFTISSLQPEDFATYYCQQYGNLPLTFGGGTKLEIKGGGGSGGGGSGGGGSQVQLVQSGAEVKKPGASVKVSCKASGYTFTSYGISWVRQAPGQGLEWMGWISAYNGNTNYAQKLQGRVTMTTDTSTSTAYMELRSLRSDDTAVYYCARDRIAAAEVYYYYGMDVWGQGTTVTVSS
binds | anti-CD123 scFv-C3 (scFv, also called C3 scFv) scFv: AIQMTQSPSSLSASVGDRVTITCRASQGIGTYLAWFQQKPGKAPKSLIYAASNLQSGVPSKFSGSGSGTDFTLTISNLQPEDFATYYCQQYKGYPLTFGGGTKLEIKGGGGSGGGGSGGGGSQVQLVQSGAEVKKPGSSVKVSCKASGGTFSSYAISWVRQAPGQGLEWMGGIIPIFGTANYAQKFQGRVTITADESTSTAYMELSSLRSEDTAVYYCARDSGWFGPRYYFDYWGQGTLVTVSS

Source: patent US20250144213A1 (UTC THERAPEUTICS SHANGHAI, published 2025)
